Data: patent US20190345535
Several values for one entry are separate records, joined by “and”; a condition that tells them apart may be missing. Equal entries are not always repeated.

Assays:
[1] = system: GFP^2-Pflu-H1-RLuc2 fusion protein
[2] = system: GFP^2-Pflu-H3-RLuc2 fusion protein
[3] = system: GFP^2-Pflu1-RLuc2 fusion protein (Pflu sensor 1)
[4] = system: GFP^2-Pflu3-RLuc2 fusion protein (Pflu sensor 3)
[5] = system: GFP^2-Pflu2-RLuc2 fusion protein (Pflu sensor 2)
[6] = system: GFP^2-Pflu-H2-RLuc2 fusion protein
[7] = system: GFP^2-Pflu-H4-RLuc2 fusion protein
[8] = system: GFP^2-plas1-RLuc2 fusion protein (BRET^2 plasmin sensor)

crude bacterial protease from Pseudomonas fluorescens strain 65
BRET^2 response to 1 nM bacterial protease in buffer, 10 minutes [1]: 49.5% | Bacterial protease response (%), BRET^2, 1 nM in UHT milk [1]: 6.7% | Selectivity (ratio of Bacterial protease response to Plasmin response), UHT milk [1]: 1.3 | BRET^2 response to 1 nM bacterial protease in buffer, 10 minutes [2]: 89.7% | Bacterial protease response (%), BRET^2, 1 nM in UHT milk [2]: 36.3% | More responsive to 1 nM bacterial protease compared to Pflu H1 sensor, buffer [2]: 82% | More responsive to 1 nM bacterial protease compared to Pflu H2 sensor, buffer [2]: 182% | More responsive to 1 nM bacterial protease compared to Pflu H4 sensor, buffer [2]: 39% | Selectivity (ratio of Bacterial protease response to Plasmin response), UHT milk [2]: 40.3 | Selectivity for bacterial protease over bovine plasmin, protease concentration by BSA standard [2]: 32 fold | Selectivity for bacterial protease over bovine plasmin, raw milk [2]: 376 fold | Reduction in the BRET ratio, 1 nM protease, UHT milk, 10 minutes [3]: 80.6% reduction in the BRET ratio with strain 65 bacterial proteases | Reduction in the BRET ratio, 1 nM protease, buffer, 10 minutes [3]: 95% reduction in the BRET ratio | Selectivity for bacterial protease over bovine plasmin [3]: 238 fold | Selectivity for bacterial protease over bovine plasmin, protease concentration by BSA standard [3]: 20 fold | Selectivity for bacterial protease over human plasmin [3]: 174 fold | Selectivity for bacterial protease over human plasmin, protease concentration by BSA standard [3]: 15 fold | Sensitivity to bacterial proteases relative to the plasmin sensor, raw milk, 10 minute incubation [3]: 10× more sensitive | Selectivity for bacterial protease over human plasmin [4]: 563 fold | Selectivity for bacterial protease over human plasmin, protease concentration by BSA standard [4]: 48.5 fold | Linear range (10%-90% BRET^2 response), 50% full fat UHT milk, protease concentration by BSA standard [5]: 6.7 nM and 13.8 nM | Selectivity for bacterial protease over human plasmin [5]: 353 fold | Selectivity for bacterial protease over human plasmin, protease concentration by BSA standard [5]: 30 fold | BRET^2 response to 1 nM bacterial protease in buffer, 10 minutes [6]: 31.9% | Bacterial protease response (%), BRET^2, 1 nM in UHT milk [6]: 6.6% | Selectivity (ratio of Bacterial protease response to Plasmin response), UHT milk [6]: 0.8 | BRET^2 response to 1 nM bacterial protease in buffer, 10 minutes [7]: 64.5% | Bacterial protease response (%), BRET^2, 1 nM in UHT milk [7]: 17.1% | Selectivity (ratio of Bacterial protease response to Plasmin response), UHT milk [7]: 2.7 | Linear range (10%-90% BRET^2 response), 50% full fat UHT milk [8]: 10 nM and 90 nM | Linear range (10%-90% BRET^2 response), 50% full fat UHT milk, protease concentration by BSA standard [8]: 116 nM and 1040 nM | Selectivity for bacterial protease over bovine plasmin [8]: 2 fold | Selectivity for bacterial protease over bovine plasmin, protease concentration by BSA standard [8]: 0.2 fold | Selectivity for bacterial protease over human plasmin [8]: 0.1 fold | Selectivity for bacterial protease over human plasmin, protease concentration by BSA standard [8]: 0.01 fold

crude bacterial protease from Pseudomonas fluorescens strain 117
Reduction in the BRET ratio, 1 nM protease, UHT milk, 10 minutes [3]: 71.2% reduction with the bacterial protease from strain 117 | Reduction in the BRET ratio, 1 nM protease, buffer, 10 minutes [3]: 95% reduction in the BRET ratio
